Our source for the Km values is article PMC5209314, “Purification and characterization of a novel glutamate dehydrogenase from Geotrichum candidum with higher alcohol and amino acid activity” (AMB Express, 2017).

Substrate in data set [1]: N
The data set can be described thus: purified protein. As to conditions: pH 4.0, 30 °C, printed unit doubtful: tested 5-50 mmol/L and same column is mM in abstract, so probably mmol/L.

Substrate in data set [2]: NC(=O)C1=CN([C@@H]2O[C@H](COP(=O)(O)OP(=O)(O)OC[C@H]3O[C@@H](n4cnc5c(N)ncnc54)[C@H](OP(=O)(O)O)[C@@H]3O)[C@@H](O)[C@H]2O)C=CC1
The data set can be described thus: purified protein. As to conditions: pH 4.0, 30 °C, printed unit doubtful: tested 0.01-0.1 mmol/L and same column is mM in abstract, so probably mmol/L, varied: cofactor. Type of data set: biochemical, Geotrichum candidum.

Substrate in data set [3]: N[C@@H](CCC(=O)O)C(=O)O
The data set can be described thus: purified protein. Type of data set: biochemical, Geotrichum candidum. To be noted: NADP+, pH 4.0, 30 °C, Table 2 header prints μmol/L, abstract mM, competitive with hexanol, b65 prints other Michaelis constants (61.02 and 13.43 mM, both called glutamate).

Substrate in data set [4]: O=C(O)CCC(=O)C(=O)O
The data set can be described thus: purified protein. The format is biochemical, Geotrichum candidum. To be noted: NADPH, NH4+, pH 4.0, 30 °C, Table 2 header prints μmol/L, abstract mM.

Substrate in data set [5]: CC(C)CCO
Nature of the data set: GC of substrate decrease, Lineweaver-Burk. Type of data set: biochemical, Geotrichum candidum. As to conditions: NADP+, pH 4.0, 30 °C, Table 2 header prints mol/L, abstract mM.

Substrate in data set [6]: CCCCCCO
Nature of the data set: GC of substrate decrease, Lineweaver-Burk. The format is biochemical, Geotrichum candidum. As to conditions: NADP+, pH 4.0, 30 °C, Table 2 header prints mol/L, abstract mM.

B1: glutamate dehydrogenase (GDH) from Geotrichum candidum S12 (Geotrichum candidum) (protein)
chain: MVQPSEPEFEQAYNELLSTLKDSTLFEKRPELEKVIPIVSIPERVLQFRVVWEDDNGVAQVNRGYRVQFNSALGPYKGGLRFHPTVNLSILKFLGYEQIFKNALTGLNMGGGKGGSDFDPKGKSDSEIRRFCVAFMGELHRHIGADTDVPAGDINVGGREIGYLFGAYKKFKNTWEGVLTGKGLTWGGSLIRPEATGYGVVYYVEKMIEYATQGKESFAGKTVAISGSGNVAQYAALKVIELGGTVVSLSDSKGAFIATTAEGFTPAEIAEIADIKVSHAQLSTLADKFASKFKYLEGARPWVHVKADVALPCATQNEVSGEEAEALVANGTKFIAEGSNMGSTQEAIDVFEAERLKNPQGIWYAPGKAANAGGVAVSGLEMAQNSQRGNWSTEEVDQRLKEIMVNIFNTSVSTAVEYSSEKGDSLPSLVKGANIAGFVKVADAMHDHGDFW
notes: identified by PMF similarity to Yaliof17820p (Yarrowia homologue)
The term Km denotes the substrate concentration at which the rate is half of its maximum. In the case of B1, the Km was 0.00535 mM in data set [1]; 0.00013 mM in data set [2]; 41.74 mM in data set [3]; 4.01 mM in data set [4]; 19.37 mM in data set [5]; 20.37 mM in data set [6].
